Results: PMC13397619

B1: NLV2 TCR alpha chain (CDR3α only) (parent)
chain: AGPMKTSYDKVI

Variants of: B1
Experiment: T-Switch: Jurkat TCRβ−/− cells expressing a CDR3 saturation-mutagenesis library, stained with two peptide-HLA-A*02:01 tetramers (original and novel peptide) plus anti-CD3, FACS-sorted into four gates, gDNA sequenced
Conditions: tetramers 1 µg/mL, 30 min on ice, SP, DP and SW gates expanded about 10 days between rounds ('two to three rounds of selection' in the Methods), unresolved parent, parent is a CDR3 fragment, scale: fold enrichment, numbering: sequential-on-construct, sequence starts at 1
[1] = with both tetramers (double-negative gate, binds neither): HLA-A*02:01 with … and with …, gate DN: OPPOSITE: higher = more of the variant in the gate that binds neither peptide = LESS binding (or no expression; inferred). Fold enrichment of the CDR3 variant in one FACS gate of a two-tetram
[2] = with both tetramers (double-positive gate): HLA-A*02:01 with … and with …, gate DP: higher = more of the variant in the gate that binds both peptides. Fold enrichment of the CDR3 variant in one FACS gate of a two-tetramer stain. SP/DP/SW gates were expanded and re-sorted bef

Variant	enrichment [1]	enrichment [2]
[…] (CDR3 as printed); Y8E derived by comparing it with the table's wild-type CDR3 AGPMKTSYDKVI	0.485	3.54
[…] (CDR3 as printed); Y8A derived by comparing it with the table's wild-type CDR3 AGPMKTSYDKVI	0.451	0
[…] (CDR3 as printed); I12T derived by comparing it with the table's wild-type CDR3 AGPMKTSYDKVI	0.984	0
[…] (CDR3 as printed); M4T derived by comparing it with the table's wild-type CDR3 AGPMKTSYDKVI	0.518	0
[…] (CDR3 as printed); K10M derived by comparing it with the table's wild-type CDR3 AGPMKTSYDKVI	1.08	0
[…] (CDR3 as printed); K10C derived by comparing it with the table's wild-type CDR3 AGPMKTSYDKVI	1.06	0
[…] (CDR3 as printed); V11W derived by comparing it with the table's wild-type CDR3 AGPMKTSYDKVI	0.939	0
[…] (CDR3 as printed); P3C derived by comparing it with the table's wild-type CDR3 AGPMKTSYDKVI	0.884	0
[…] (CDR3 as printed); S7R derived by comparing it with the table's wild-type CDR3 AGPMKTSYDKVI	0.927	0
[…] (CDR3 as printed); P3K derived by comparing it with the table's wild-type CDR3 AGPMKTSYDKVI	1.01	0
[…] (CDR3 as printed); G2V derived by comparing it with the table's wild-type CDR3 AGPMKTSYDKVI	0.88	0
[…] (CDR3 as printed); T6F derived by comparing it with the table's wild-type CDR3 AGPMKTSYDKVI	1.26	0
[…] (CDR3 as printed); I12G derived by comparing it with the table's wild-type CDR3 AGPMKTSYDKVI	1.06	0
[…] (CDR3 as printed); A1I derived by comparing it with the table's wild-type CDR3 AGPMKTSYDKVI	0.798	0
[…] (CDR3 as printed); G2C derived by comparing it with the table's wild-type CDR3 AGPMKTSYDKVI	0.956	0
[…] (CDR3 as printed); D9S derived by comparing it with the table's wild-type CDR3 AGPMKTSYDKVI	1.04	0
[…] (CDR3 as printed); D9L derived by comparing it with the table's wild-type CDR3 AGPMKTSYDKVI	0.93	0
[…] (CDR3 as printed); T6P derived by comparing it with the table's wild-type CDR3 AGPMKTSYDKVI	0.299	0
[…] (CDR3 as printed); Y8M derived by comparing it with the table's wild-type CDR3 AGPMKTSYDKVI	1.1	0

Variant	enrichment [1]	enrichment [2]
[…] (CDR3 as printed); S7C derived by comparing it with the table's wild-type CDR3 AGPMKTSYDKVI	0.877	0
[…] (CDR3 as printed); T6H derived by comparing it with the table's wild-type CDR3 AGPMKTSYDKVI	1.22	0
[…] (CDR3 as printed); G2A derived by comparing it with the table's wild-type CDR3 AGPMKTSYDKVI	0.977	0
[…] (CDR3 as printed); T6D derived by comparing it with the table's wild-type CDR3 AGPMKTSYDKVI	1.18	0
[…] (CDR3 as printed); P3H derived by comparing it with the table's wild-type CDR3 AGPMKTSYDKVI	0.96	0
[…] (CDR3 as printed); S7Q derived by comparing it with the table's wild-type CDR3 AGPMKTSYDKVI	0.986	0
[…] (CDR3 as printed); G2K derived by comparing it with the table's wild-type CDR3 AGPMKTSYDKVI	0.928	0
[…] (CDR3 as printed); D9H derived by comparing it with the table's wild-type CDR3 AGPMKTSYDKVI	1.29	0
[…] (CDR3 as printed); S7G derived by comparing it with the table's wild-type CDR3 AGPMKTSYDKVI	0.911	0
[…] (CDR3 as printed); I12R derived by comparing it with the table's wild-type CDR3 AGPMKTSYDKVI	1.1	0
[…] (CDR3 as printed); D9V derived by comparing it with the table's wild-type CDR3 AGPMKTSYDKVI	0.959	0
[…] (CDR3 as printed); A1T derived by comparing it with the table's wild-type CDR3 AGPMKTSYDKVI	0.871	0
[…] (CDR3 as printed); P3D derived by comparing it with the table's wild-type CDR3 AGPMKTSYDKVI	1.14	0
[…] (CDR3 as printed); P3G derived by comparing it with the table's wild-type CDR3 AGPMKTSYDKVI	1	0
[…] (CDR3 as printed); S7W derived by comparing it with the table's wild-type CDR3 AGPMKTSYDKVI	0.807	0
[…] (CDR3 as printed); K5C derived by comparing it with the table's wild-type CDR3 AGPMKTSYDKVI	1.03	0
[…] (CDR3 as printed); M4W derived by comparing it with the table's wild-type CDR3 AGPMKTSYDKVI	0.861	0
[…] (CDR3 as printed); G2M derived by comparing it with the table's wild-type CDR3 AGPMKTSYDKVI	1.1	0
[…] (CDR3 as printed); K5L derived by comparing it with the table's wild-type CDR3 AGPMKTSYDKVI	0.992	0

Variant	enrichment [1]	enrichment [2]
[…] (CDR3 as printed); V11P derived by comparing it with the table's wild-type CDR3 AGPMKTSYDKVI	0.923	0
[…] (CDR3 as printed); Y8S derived by comparing it with the table's wild-type CDR3 AGPMKTSYDKVI	0.528	0
[…] (CDR3 as printed); I12L derived by comparing it with the table's wild-type CDR3 AGPMKTSYDKVI	0.907	0
[…] (CDR3 as printed); I12F derived by comparing it with the table's wild-type CDR3 AGPMKTSYDKVI	1.16	0
[…] (CDR3 as printed); P3F derived by comparing it with the table's wild-type CDR3 AGPMKTSYDKVI	1.32	0
[…] (CDR3 as printed); K10H derived by comparing it with the table's wild-type CDR3 AGPMKTSYDKVI	0.835	0
[…] (CDR3 as printed); I12E derived by comparing it with the table's wild-type CDR3 AGPMKTSYDKVI	1.18	0
[…] (CDR3 as printed); V11D derived by comparing it with the table's wild-type CDR3 AGPMKTSYDKVI	0.904	0
[…] (CDR3 as printed); K10Y derived by comparing it with the table's wild-type CDR3 AGPMKTSYDKVI	0.393	0
[…] (CDR3 as printed); G2W derived by comparing it with the table's wild-type CDR3 AGPMKTSYDKVI	1.05	0
[…] (CDR3 as printed); K10V derived by comparing it with the table's wild-type CDR3 AGPMKTSYDKVI	1.38	0
[…] (CDR3 as printed); M4Y derived by comparing it with the table's wild-type CDR3 AGPMKTSYDKVI	1.15	0
[…] (CDR3 as printed); G2H derived by comparing it with the table's wild-type CDR3 AGPMKTSYDKVI	0.822	0
[…] (CDR3 as printed); K5I derived by comparing it with the table's wild-type CDR3 AGPMKTSYDKVI	1.56	0
[…] (CDR3 as printed); S7L derived by comparing it with the table's wild-type CDR3 AGPMKTSYDKVI	1.06	0
[…] (CDR3 as printed); T6M derived by comparing it with the table's wild-type CDR3 AGPMKTSYDKVI	1.45	0
[…] (CDR3 as printed); V11Y derived by comparing it with the table's wild-type CDR3 AGPMKTSYDKVI	1.04	0
[…] (CDR3 as printed); K10N derived by comparing it with the table's wild-type CDR3 AGPMKTSYDKVI	1.16	0
[…] (CDR3 as printed); Y8R derived by comparing it with the table's wild-type CDR3 AGPMKTSYDKVI	1.17	0
